Results: patent US20180355053A1 (published 2018)

B1: CD20-4GL-SIRPα (bispecific antibody)
heavy: not shown
light: QIVLSQSPAILSASPGEKVTMTCRASSSVSYIHWFQQKPGSSPKPWIYATSNLASGVPVRFSGSGSGTSYSLTISRVEAEDAATYYCQQWTSNPPTFGGGTKLEIKRTVAAPSVFIFPPSDEQLKSGTASVVCLLNNFYPREAKVQWKVDNALQSGNSQESVTEQDSKDSTYSLSSTLTLSKADYEKHKVYACEVTHQGLSSPVTKSFNRGEC
B2: SIRPα-CD20 (bispecific antibody)
heavy: not shown
light: QIVLSQSPAILSASPGEKVTMTCRASSSVSYIHWFQQKPGSSPKPWIYATSNLASGVPVRFSGSGSGTSYSLTISRVEAEDAATYYCQQWTSNPPTFGGGTKLEIKRTVAAPSVFIFPPSDEQLKSGTASVVCLLNNFYPREAKVQWKVDNALQSGNSQESVTEQDSKDSTYSLSSTLTLSKADYEKHKVYACEVTHQGLSSPVTKSFNRGEC
B3: CD20-2GL-SIRPα (bispecific antibody)
heavy: not shown
light: QIVLSQSPAILSASPGEKVTMTCRASSSVSYIHWFQQKPGSSPKPWIYATSNLASGVPVRFSGSGSGTSYSLTISRVEAEDAATYYCQQWTSNPPTFGGGTKLEIKRTVAAPSVFIFPPSDEQLKSGTASVVCLLNNFYPREAKVQWKVDNALQSGNSQESVTEQDSKDSTYSLSSTLTLSKADYEKHKVYACEVTHQGLSSPVTKSFNRGEC

Biological target: CD47-His (UniProt Q08722 19-139)
Sequence (Q08722 19-139): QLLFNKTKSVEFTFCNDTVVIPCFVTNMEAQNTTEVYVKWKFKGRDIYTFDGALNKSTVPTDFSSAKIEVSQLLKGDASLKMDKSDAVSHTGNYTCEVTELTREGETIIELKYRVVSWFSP
Assay: SPR (Biacore)

In order of falling Kd:
1. B3  21.4 nM
2. B1  15.9 nM
3. B2  6.39 nM
